From patent publication US20150010495A1 come the findings set out here.

For the experiment, the target named is […]n, n = 5 (100-mer), non-glycosylated (human). Put plainly: peptide ELISA, OD 492 nm; limit of the class, member by Table 2; reference: 20-mer. In general terms: An ELISA detects its analyte on a solid surface through an enzyme-linked reagent.
[…]n, n = 5 (100-mer), non-glycosylated (human), sequence (peptide, as listed by the source): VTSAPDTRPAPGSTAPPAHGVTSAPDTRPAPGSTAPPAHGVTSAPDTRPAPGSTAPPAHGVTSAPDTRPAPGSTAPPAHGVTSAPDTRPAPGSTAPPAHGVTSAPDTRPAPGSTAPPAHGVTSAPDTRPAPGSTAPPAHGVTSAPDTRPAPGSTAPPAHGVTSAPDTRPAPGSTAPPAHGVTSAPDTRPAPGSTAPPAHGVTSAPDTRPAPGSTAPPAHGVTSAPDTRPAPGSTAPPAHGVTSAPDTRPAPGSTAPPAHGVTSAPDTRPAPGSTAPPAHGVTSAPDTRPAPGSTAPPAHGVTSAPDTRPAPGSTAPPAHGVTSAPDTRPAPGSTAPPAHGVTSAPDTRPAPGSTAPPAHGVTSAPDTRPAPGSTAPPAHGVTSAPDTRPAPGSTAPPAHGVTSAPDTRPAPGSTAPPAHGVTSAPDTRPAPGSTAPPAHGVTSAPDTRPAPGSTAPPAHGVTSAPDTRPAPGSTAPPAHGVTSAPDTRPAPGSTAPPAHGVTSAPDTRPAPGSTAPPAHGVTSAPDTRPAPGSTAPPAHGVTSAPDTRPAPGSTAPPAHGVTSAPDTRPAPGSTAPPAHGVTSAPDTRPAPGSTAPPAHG

As for 214D4 (antibody), the ratio of the optical density 100-mer/20-mer lay in the range of 1.5 to 3.
With B27.29 (antibody) the figure was 1.5 to 3; with BC2 (antibody), > 3; with C595 (antibody), < 1.5.
To E29 (antibody) belongs 1.5 to 3.
